B1: HDV Ribozyme (parent)
chain: GGCCGGCAUGGUCCCAGCCUCCUCGCUGGCGCCGGCUGGGCAACAUUCCGAGGGGACCGUCCCCUCGGUAAUGGCGAAUGGGACCCA

Variants of: B1
Assay: self-cleavage, relative activity (ratio to wild type); higher = more cleavage; co-transcriptional

First: G73U C84A
Second: A8U G25U
The self-cleavage of the first is higher: 0.158 for the first, 0.106 for the second.

Going from C15A C41U to A8C G67U, the self-cleavage rises from 0.399 to 0.739.

Compared with C32G G74C, G59A C75A is lower in self-cleavage: 0.166 for the first, 0.163 for the second.

Going from G59U G74C to C3U U27C, the self-cleavage falls from 0.271 to 0.262.

First: C4U C21U
Second: U9A A70U
The self-cleavage of the first is lower: 0.0678 for the first, 0.997 for the second.

Compared with U20C G40A, C41A U79C is higher in self-cleavage: 0.0941 for the first, 0.237 for the second.

Going from C26A A42G to G28A C32A, the self-cleavage falls from 0.665 to 0.234.

Compared with G54U G76U, C33G C49G is lower in self-cleavage: 1.09 for the first, 0.0978 for the second.

Compared with C4U U46C, G31A U37G is lower in self-cleavage: 0.403 for the first, 0.242 for the second.

First: G52C G55U
Second: C22A G74C
The self-cleavage of the first is higher: 0.966 for the first, 0.146 for the second.

Compared with G17A U69C, C21U U79C is lower in self-cleavage: 0.786 for the first, 0.0573 for the second.

Going from G67C A70U to C15U C24G, the self-cleavage falls from 0.851 to 0.

First: U47C G73U
Second: C7G G17U
The self-cleavage of the first is higher: 0.225 for the first, 0 for the second.

First: C44G A77C
Second: G11A G29A
The self-cleavage of the first is higher: 0.297 for the first, 0.0633 for the second.

Compared with A56C C63A, C75A C86G is lower in self-cleavage: 1.04 for the first, 0.0997 for the second.

Going from G1C C24G to U23A G82U, the self-cleavage rises from 0.0462 to 0.425.

Going from A8C U20C to A45U C86U, the self-cleavage rises from 0 to 0.95.

First: G17A A78C
Second: C33U C64U
The self-cleavage of the first is lower: 0.268 for the first, 0.785 for the second.

Compared with C22A G50C, G52C G76C is higher in self-cleavage: 0.354 for the first, 1.03 for the second.

Compared with A8C C62A, A56U U60A is higher in self-cleavage: 0.918 for the first, 1.13 for the second.

Going from C48A G50C to U27C C85U, the self-cleavage falls from 1.11 to 1.04.

Going from C21A U79A to C49U G59A, the self-cleavage rises from 0.125 to 0.935.

Going from G5A U12C to C22G C44U, the self-cleavage falls from 0.0615 to 0.0361.

Going from G2U U37G to A42C A43G, the self-cleavage rises from 0.0422 to 0.0898.

Compared with C14G U20A, U20G G52C is higher in self-cleavage: 0 for the first, 0.256 for the second.

First: U37G A70G
Second: C24G G34A
The self-cleavage of the first is lower: 0 for the first, 0.0332 for the second.

Compared with C15A C48U, C21U C61G is lower in self-cleavage: 0.54 for the first, 0.277 for the second.

Going from U23G G82C to G11C U47G, the self-cleavage rises from 0.222 to 0.383.

Compared with G40A C62U, G5A C13G is lower in self-cleavage: 0.853 for the first, 0 for the second.

First: C26U C48G
Second: C15U A45U
The self-cleavage of the first is higher: 1.07 for the first, 0.831 for the second.

Compared with C57G G80A, C58U G68C is higher in self-cleavage: 0.208 for the first, 0.95 for the second.

Compared with G17C G25A, C4U G53A is higher in self-cleavage: 0.131 for the first, 0.665 for the second.

First: G38A A56G
Second: G28U C66G
The self-cleavage of the first is lower: 0.108 for the first, 0.277 for the second.

Compared with U23A C64U, G11C A56C is lower in self-cleavage: 0.935 for the first, 0.598 for the second.

First: G52A C85U
Second: U69C G73C
The self-cleavage of the first is higher: 0.923 for the first, 0.633 for the second.

Going from A70C to G52A A78U, the self-cleavage falls from 0.894 to 0.277.

First: C19G C49A
Second: U20C U60C
The self-cleavage of the first is lower: 0.0354 for the first, 0.0978 for the second.

Going from C33G C61A to C19A A51U, the self-cleavage falls from 0.193 to 0.175.

First: G34C A83G
Second: C18A U27A
The self-cleavage of the first is lower: 0.0959 for the first, 0.131 for the second.

Compared with G35C G39A, C41A G68A is higher in self-cleavage: 0.178 for the first, 1.01 for the second.

Compared with C19U G74C, G10C G52C is higher in self-cleavage: 0.126 for the first, 0.78 for the second.

Compared with G2C A77G, G17A G39U is higher in self-cleavage: 0.0346 for the first, 0.197 for the second.

Going from G38U U79C to C61U G68U, the self-cleavage rises from 0.112 to 0.95.

Going from U12G C66U to G34C A43U, the self-cleavage falls from 0.853 to 0.

First: C4A A16U
Second: G28C G53A
The self-cleavage of the first is lower: 0.0665 for the first, 0.0941 for the second.

Compared with C36U C66U, G59A G81C is lower in self-cleavage: 0.741 for the first, 0.228 for the second.

Compared with C58U A78U, U72A G81A is lower in self-cleavage: 0.277 for the first, 0.113 for the second.

First: C49A A83C
Second: G40U A70U
The self-cleavage of the first is lower: 0.6 for the first, 0.69 for the second.

Going from G31A C33A to G5U C58A, the self-cleavage rises from 0.0744 to 0.277.

First: C30G G81U
Second: C64A A83C
The self-cleavage of the first is lower: 0.158 for the first, 0.332 for the second.

Going from G5A A71G to U20G C57U, the self-cleavage rises from 0 to 0.302.

Going from A16C C86U to U23G G80C, the self-cleavage falls from 0.739 to 0.147.

First: C15A C84G
Second: G38A G67C
The self-cleavage of the first is higher: 0.244 for the first, 0.113 for the second.

Compared with G59C C86G, C41U C85U is lower in self-cleavage: 1.06 for the first, 0.845 for the second.

Going from C32U C61A to G6C C62G, the self-cleavage falls from 0.841 to 0.151.

Compared with G25A G80C, G25A C64A is lower in self-cleavage: 0.12 for the first, 0.115 for the second.

Compared with G55U C86A, G67A C85G is higher in self-cleavage: 0.911 for the first, 1.1 for the second.

First: U12C C15A
Second: G52A C63U
The self-cleavage of the first is lower: 0.482 for the first, 0.969 for the second.

First: C49A C61G
Second: C33A G73A
The self-cleavage of the first is higher: 0.816 for the first, 0.147 for the second.

First: C63A U69C
Second: U23G U47A
The self-cleavage of the first is higher: 1.12 for the first, 0.864 for the second.

First: C19A C44U
Second: C24U G73A
The self-cleavage of the first is lower: 0.0191 for the first, 0.188 for the second.

First: G68U A70C
Second: U9G C48U
The self-cleavage of the first is lower: 0.582 for the first, 1.05 for the second.

Compared with G28A C57A, G52C G67U is higher in self-cleavage: 0.0978 for the first, 0.753 for the second.

Going from C22A to A42C U46A, the self-cleavage falls from 0.306 to 0.107.

First: G2U C13G
Second: C44A G52U
The self-cleavage of the first is lower: 0 for the first, 0.913 for the second.

Going from U47G C61A to A78U G82A, the self-cleavage falls from 1.2 to 0.109.

First: C7U A87G
Second: A56G U69C
The self-cleavage of the first is lower: 0.91 for the first, 1.32 for the second.

Going from C63G G82C to G35C A87C, the self-cleavage falls from 0.136 to 0.0866.

Going from C7G G28A to A43C C62G, the self-cleavage rises from 0.0536 to 0.322.

Compared with C24G C33A, U27A G76U is higher in self-cleavage: 0.244 for the first, 0.65 for the second.

First: U12G C66G
Second: G2C G6U
The self-cleavage of the first is higher: 0.862 for the first, 0.0601 for the second.

Going from G29A C58U to G82U C84U, the self-cleavage falls from 0.197 to 0.133.

Going from C33G G35C to G1C A43U, the self-cleavage rises from 0.0396 to 0.135.

Going from C18G A42G to U37C C75A, the self-cleavage rises from 0.115 to 0.177.

Going from A45C U72C to C49U G80A, the self-cleavage falls from 0.481 to 0.4.

Going from U20A A78U to G55U C57U, the self-cleavage rises from 0 to 1.11.

Going from U27G A45C to U9A G59A, the self-cleavage rises from 0.26 to 1.19.

First: A51U C61A
Second: G81C A87C
The self-cleavage of the first is higher: 0.938 for the first, 0.269 for the second.

First: C3A G82U
Second: G29A C36A
The self-cleavage of the first is higher: 0.0831 for the first, 0.0222 for the second.

First: G6U G81C
Second: G10A U60G
The self-cleavage of the first is lower: 0.196 for the first, 0.748 for the second.

First: C36A G81A
Second: C19G A56U
The self-cleavage of the first is higher: 0.138 for the first, 0.0573 for the second.

Compared with A42U U65C, C14U A70U is higher in self-cleavage: 0.657 for the first, 1.08 for the second.

Compared with C26G C36G, G11A A78G is lower in self-cleavage: 0.237 for the first, 0.193 for the second.

In the case of C13A C18U, the self-cleavage is reported as 0.0604.

Source: the RNAGym collection of RNA variant scans (doi:10.7554/elife.80360)
